This note sets out measurements from patent US20070212363A1 (US Dept. of Health and Human Services, published 2007).

Common to all, as to assay: cell-based or functional assay
Experiment [1] concerns the target T1, HIV-1 JR-FL envelope glycoprotein (Env) (HIV-1 strain JR-FL).
In experiment [2] the target is HIV-1 IIIB envelope glycoprotein (Env) (HIV-1 strain IIIB).
Experiment [3] addresses HIV-1 AD8 envelope glycoprotein (Env) (HIV-1 strain AD8).
The target of experiment [4] is T1, HIV-1 JR-FL envelope glycoprotein (Env). The source holds these as a separate data set.
In experiment [5] the target is HIV-1 IIIB envelope glycoprotein (Env) (HIV-1 strain IIIB). This is another data set of the same source.
The target of experiment [6] is HIV-1 AD8 envelope glycoprotein (Env) (HIV-1 strain AD8). The source holds these as a separate data set.

B1: scFv m9 (scFv)
scFv: VLTQSPGTLSLSAGERATLSCRASQSVSSGSLAWYQQKPGQAPRLLIYGASTRATGIPDRFSGSGSGTDFTLTIGRLEPEDLAVYYCQQYGTSPYTFGQGTKLEIKRTGGGGSGGGGSGGGGSVQLLEQSGAEVKKPGSSVQVSCKAFGGTFSMYGFNWVRQAPGHGLEWMGGIIPIFGTTNYAQKFRGRVTFTADQATSTAYMELTNLRSDDTAVYYCARDFGPDWEGGDSYDGSGRGFFDFWGQGTLVNVSS
Consider B1, for which the “percentage of maximal infection, U87.CD4.CCR5.CXCR4 cells, 100 µg/mL antibody” value in experiment [1] was determined as 20%; in experiment [2], 12%; in experiment [3] it was 6.1%. The results for the “Neutralizing activity (percentage) at 100 µg/mL” value in experiment [4], in experiment [5] and in experiment [6] were 90%, 100% and 100%, respectively.
